We go through 16 molecules from US20180355061A1 (Janssen / Centocor, published 2018).

Positions count from the first letter of the chain named. In names and notes the source's numbering stands.

B1: PD1B743 (antibody, human IgG1, kappa, V domains shown)
VH: QVQLVQSGSELKKPGASVKVSCKASGYTFTDYSMHWVRQAPGQGLEWMGWINIETGEPTYAQGFTGRFVFSLDTSVSTAYLQICSLKAEDTAVYFCARDYYGTYFYAMDYWGQGTLVTVSS
VL: EIVLTQSPATLSLSPGERATLSCTASSSVSSSYLHWYQQKPGLAPRLLIYSTSNLASGIPDRFSGSGSGTDYTLTISRLEPEDFAVYYCHQYHRSPLTFGQGTKLEIKR
notes: Humanized PD1B505, IgG1; also called VH PD1H384; VL PD1L469
B2: PD1B506 (antibody, human IgG1, kappa, V domains shown)
VH: QVQLQQPGAELVKPGASVKLSCKASGYTFTTYWMHWVKQRPGQGLEWIGEINPNNGGINYNEKFKKKATLTVDKSSSTAYMQLSSLTSEDSAVYYCTIDYYDYGGYWGQGTTLTVSS
VL: DIVMTQSQKFMSTSVRDRVSVTCKASQNVGTNVAWYQQKPGQSPKALIYSASYRYSGVPDRFTGSGSGTDFTLTITNVQSEDLAEYFCQQYNIYPYTFGSGTKLEMKR
notes: Parental mouse antibody cloned as chimeric human IgG1; Bin 5; also called VH PD1H90; VL PD1L28
B3: PD1B505 (antibody, human IgG1, kappa, V domains shown)
VH: DVQLQESGPELKKPGETVKISCKASGYTFTDYSMHWVKQAPGKGLKWMGWINIETGEPTYADDFKGRFAFSLETSASTAYLQINNLKNEDTATYFCARDYYGTYFYAMDYWGQGTTLTVSS
VL: QIVLTQSPAIMSASLGERVTMTCTASSSVSSSYLHWYQQKPGSSPKLWIYSTSNLASGVPARFSGSGSGTSYSLTISSMEAEDAATYYCHQYHRSPLTFGAGTKLELKR
notes: Parental mouse antibody cloned as chimeric human IgG1; Bin 1; also called VH PD1H93; VL PD1L30
B4: PD1B756 (antibody, human IgG1, kappa, V domains shown)
VH: QITLKESGPTLVKPTQTLTLTCTFSGFSLSTSGMGVSWIRQPPGKALEWLAHIYWDDDKRYSPSLKSRLTITKDTSKNQVVLTMTNMDPVDTGTYYCVRKGYYDYGYVMDYWGQGTLVTVSS
VL: DIVMTQSPLSLPVTPGEPASISCRSSKSLLHSNGITYLNWYLQKPGQSPQLLIYQMSNLASGVPDRFSGSGSGTDFTLKISRVEAEDVGVYYCAQNLELPLTFGGGTKVEIKR
notes: Humanized PD1B512, IgG1; also called VH PD1H389; VL PD1L472
B5: PD1B750 (antibody, human IgG1, kappa, V domains shown)
VH: QVQLVQSGAEVKKPGASVKVSCKASGYTFTTYWMHWVRQAPGQGLEWMGEINPNNGGINYAQKFQGRVTLTVDKSISTAYMELSRLRSDDTAVYYCTIDYYDYGGYWGQGTLVTVSS
VL: DIQMTQSPSSLSASVGDRVTITCKASQNVGTNVAWYQQKPEKAPKSLIYSASYRYSGVPSRFSGSGSGTDFTLTISSLQPEDFATYYCQQYNIYPYTFGQGTKLEIKR
notes: Humanized PD1B506, IgG1; also called VH PD1H388; VL PD1L470
B6: PD1B849 (antibody, human IgG1, kappa, V domains shown)
VH: B5 VH with N55E
VL: B5 VL
notes: N55E variant of PD1B750, IgG1; also called VH PD1H403; VL PD1L470
B7: PD1B850 (antibody, human IgG1, kappa, V domains shown)
VH: B5 VH with G56I
VL: B5 VL
notes: G56I variant of PD1B750, IgG1; tested as crude supernatant in SPR; also called VH PD1H404; VL PD1L470
B8: PD1B846 (antibody, human IgG1, kappa, V domains shown)
VH: B5 VH with N55D, G56A
VL: B5 VL
notes: N55D, G56A variant of PD1B750, IgG1; tested as crude supernatant in SPR; also called VH PD1H400; VL PD1L470
B9: PD1B847 (antibody, human IgG1, kappa, V domains shown)
VH: B5 VH with N55Q
VL: B5 VL
notes: N55Q variant of PD1B750, IgG1; tested as crude supernatant in SPR; also called VH PD1H401; VL PD1L470
B10: PD1B845 (antibody, human IgG1, kappa, V domains shown)
VH: B5 VH with G56A
VL: B5 VL
notes: G56A variant of PD1B750, IgG1; tested as crude supernatant in SPR; also called VH PD1H399; VL PD1L470
B11: PD1B848 (antibody, human IgG1, kappa, V domains shown)
VH: B5 VH with N55K
VL: B5 VL
notes: N55K variant of PD1B750, IgG1; tested as crude supernatant in SPR; also called VH PD1H402; VL PD1L470
B12: Fab variant of PD1B878 with VH PD1H585 (E57Y) (Fab, V domains shown)
VH: B1 VH with E57Y, C84S
VL: EIVLTQSPATLSLSPGERATLSCTASSSVSSSYLHWYQQKPGLAPRLLIYSTSNLASGIPDRFSGSGSGTDYTLTISRLEPEDFAVYYCHQYHRSPLTFGQGTKLEIK
notes: Soluble Fab in E. coli supernatant; pairing with the parental VL inferred from the non-combinatorial library design
B13: Fab variant of PD1B878 with VH PD1H586 (E57H) (Fab, V domains shown)
VH: B1 VH with E57H, C84S
VL: B12 VL
notes: Soluble Fab in E. coli supernatant; pairing with the parental VL inferred
B14: Fab variant of PD1B878 with VL PD1L651 (V29F) (Fab, V domains shown)
VH: B1 VH with C84S
VL: B12 VL with V29F
notes: Soluble Fab in E. coli supernatant; pairing with the parental VH inferred
B15: Fab variant of PD1B878 with VL PD1L652 (S30P) (Fab, V domains shown)
VH: B1 VH with C84S
VL: B12 VL with S30P
notes: as for B14
B16: Fab variant of PD1B878 with VH PD1H587 (E57W) (Fab, V domains shown)
VH: B1 VH with E57W, C84S
VL: B12 VL
notes: as for B13

One assay deals with T1, human PD-1 (soluble analyte in SPR) (human, UniProt Q15116 25-170, limits assumed).
T1 construct: also called CD279; PDCD1
T1 sequence (Q15116 25-170 limits assumed): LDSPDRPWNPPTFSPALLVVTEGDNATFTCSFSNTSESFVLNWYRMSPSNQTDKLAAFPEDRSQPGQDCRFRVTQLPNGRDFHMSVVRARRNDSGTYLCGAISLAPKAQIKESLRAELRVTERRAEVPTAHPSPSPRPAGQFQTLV
Briefly: SPR (ProteOn XPR36), mAb captured on anti-human IgG Fc, PD-1 as analyte, 25 C. On the procedure: Affinity measurements were performed using a ProteOn XPR36 system (BioRad). […] Approximately 5000 RU (response units) of mAbs were immobilized. The kinetic experiments were performed at 25° C. in running buffer (DPBS+0.01% P20+100 μg/mL BSA). To perform kinetic experiments, 200 RU of mAbs were captured followed by injections of analytes (human and cyno PD-1) at concentrations ranging from 1.563 nM to 400 nM (in a […] serial dilution). The association phase was monitored for 3 minutes at 50 μL/min, then followed by 10 or 15 minutes of buffer flow (dissociation phase). The chip surface was regenerated with two 18 second pulses of 100 mM H₃PO₄ (Sigma, Cat #7961) at 100 μL/min.
The collected data were processed using ProteOn Manager software. First, the data was corrected for background using inter-spots. Then, double reference subtraction of the data was performed by using the buffer injection for analyte injections. The kinetic analysis of the data was performed using a Langmuir 1:1 binding model. The result for each mAb was reported in the format of ka (On-rate), kd (Off-rate) and KD (equilibrium dissociation constant).
Affinity of the parental and humanized antibodies to PD-1 was measured using SPR as described in Example 1.
In general, Kd refers to the free concentration of one partner at which half of the binding sites on the other are occupied at equilibrium, for simple one-to-one binding. For orientation: koff means a measure of how fast the partners let go of each other. A lower koff goes with a long-lived complex. Broadly, the kon is a measure of how fast the partners come together. A high value points to fast association. The molecule B1 showed a Kd of 32.8 nM, an off-rate constant (koff) of 0.003 s⁻¹ and an association rate constant (kon) of 91500 M⁻¹ s⁻¹.

B2 yielded a Kd of 52.4 nM, a koff of 0.0102 s⁻¹ and a kon of 195000 M⁻¹ s⁻¹.

For the molecule B3, the affinity, expressed as Kd, was 29.1 nM; the dissociation rate constant (koff) amounted to 0.00236 s⁻¹; the kon is 81100 M⁻¹ s⁻¹.

In the case of B4, the Kd came to 18.1 nM, the koff was found to be 0.00214 s⁻¹ and the kon was 118000 M⁻¹ s⁻¹.

B5 returned a Kd of 23.2 nM, a koff of 0.00832 s⁻¹ and an on-rate (kon) of 359000 M⁻¹ s⁻¹.

B6 returned a Kd of 47.1 nM, a koff of 0.00883 s⁻¹ and a kon of 188000 M⁻¹ s⁻¹.

In the next assay the target is T2, human PD-1 expressed on cells (human, UniProt Q15116 25-288). In words: cell-based or functional assay.
T2 sequence (Q15116 25-288 limits assumed): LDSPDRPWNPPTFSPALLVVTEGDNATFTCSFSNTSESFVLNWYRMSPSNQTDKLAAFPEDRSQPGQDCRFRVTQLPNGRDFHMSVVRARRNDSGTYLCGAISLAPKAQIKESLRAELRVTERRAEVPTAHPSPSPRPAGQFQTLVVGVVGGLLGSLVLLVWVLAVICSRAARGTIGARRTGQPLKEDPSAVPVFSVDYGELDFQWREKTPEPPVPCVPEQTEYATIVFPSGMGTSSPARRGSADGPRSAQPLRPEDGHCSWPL
The term % inhibition denotes the percentage by which the read-out fell short of the control. Read a low % inhibition as little suppression. With B1, the “% inhibition at 10 ug/ml mAb, CMV-PBMC assay, donor D4” value (“% inhibition … donor D4” for short) stood at 30.5% and the “% inhibition at 10 ug/ml mAb, CMV-PBMC assay, donor D5” value (from here on “% inhibition … donor D5”) stood at 64%.

Take B4: the “% inhibition at 10 ug/ml mAb, CMV-PBMC assay, donor D3” value was found to be 27.4%; the “% inhibition … donor D4” value turned out to be 0.3%; the “% inhibition … donor D5” value came out at 69.3%.

With B5, the “% inhibition … donor D4” value was 24.2% and the “% inhibition … donor D5” value turned out to be 75%.

A further assay concerns the target T1, human PD-1 (soluble analyte in SPR). In words: SPR (ProteOn XPR36), mAb from crude supernatant captured on anti-human IgG Fc, PD-1 as analyte, 25 C.
B7 returned a Kd of 23 nM, a koff of 0.00719 s⁻¹ and a kon of 313000 M⁻¹ s⁻¹.

As to B8, the Kd was determined as 21.6 nM, the koff is 0.00753 s⁻¹ and the kon is 349000 M⁻¹ s⁻¹.

B9 registered a Kd of 24.6 nM, a koff of 0.00744 s⁻¹ and a kon of 303000 M⁻¹ s⁻¹.

Take B10: the affinity, expressed as Kd, was 24 nM; the koff amounted to 0.00843 s⁻¹; the kon is 351000 M⁻¹ s⁻¹.

Molecule B11 gave a Kd of 39.2 nM, a koff of 0.00991 s⁻¹ and a kon of 253000 M⁻¹ s⁻¹.

The next assay deals with T3, biotinylated Human PD-1/PDCD1 (Acro Biosystems. Cat #PD1-H82E4) (human, UniProt Q15116 25-167, biotinylated).
T3 construct: Bought reagent, construct not described
T3 sequence (Q15116 25-167 limits assumed): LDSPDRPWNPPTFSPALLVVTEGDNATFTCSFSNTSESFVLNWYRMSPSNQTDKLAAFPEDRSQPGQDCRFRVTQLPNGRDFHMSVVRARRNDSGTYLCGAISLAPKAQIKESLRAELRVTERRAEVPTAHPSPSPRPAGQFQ
Briefly: Fab ELISA: Fab captured by anti-Fd(CH1), biotinylated human PD-1 at 5 nM, streptavidin-HRP chemiluminescence; reference parental PD1B878 Fab. On the procedure:
For follow-up screening, plasmid DNA was prepared from overnight culture of the TG-1 Escherichia coli cells and the pIX gene was excised by NheI/SpeI digestion. After ligation, the DNA was transformed into TG-1 cells and grown on LB/Agar plates overnight. The next day, colonies were picked, grown overnight, and the cultures used for (i) colony sequencing of the V-regions, and (ii) induction of Fab production. For Fab production, the overnight culture was diluted 100 folds in new media and grown for 5-6 hours at 37° C. Fab production was induced by the addition of fresh media containing IPTG and the cultures were grown overnight at 30° C. The following day, the cultures were spun down and the supernatants, containing the soluble Fab proteins, were used for Fab ELISA. For the ELISA, the soluble Fab proteins were captured onto plates by a polyclonal anti-Fd(CH1) antibody. After washing and blocking, biotinylated Human PD-1/PDCD1 was added at 5 nM concentration. This concentration enabled ranking of the Fab variants, defined as fold change versus the parent, in which the parental Fab, present as a control in all plates, is defined as 100% binding. The biotinylated human PD-1 was detected by HRP-conjugated streptavidin with chemiluminescence measured in a plate reader.
On the technique in general: In an ELISA, binding on a coated surface is turned into a signal by an enzyme label.
In the case of B12, the “fold binding relative to parental Fab” value is not below 10 fold.

Turning to B13, the “fold binding relative to parental Fab” value is not below 10 fold.

Regarding B14, the “fold binding relative to parental Fab” value was not below 10 fold.

For B15, the “fold binding relative to parental Fab” value is not below 10 fold.

For the molecule B16, the “fold binding relative to parental Fab” value is not below 10 fold.

Another assay deals with T2, human PD-1 expressed on cells. In words: cell-based or functional assay. This is another data set of the same source.
Turning to B1, the “mean % inhibition of T cell proliferation, CMV-PBMC assay (FIG. 5B)” value (from here on “mean % inhibition”) came to 58%.

In the case of B4, the “mean % inhibition” value was 36.7%.

Consider B5, for which the “mean % inhibition” value came to 65.9%.
